Test results reported in patent US20180319847A1.

Columns and labels:
EphB2-Fc [1] = assay: SPR competition on immobilised EphB2-Fc; competitor ephrinB2-Fc (246 nM), 0-1020 nM GST-Azu 88-113
EphB2-Fc [2] = assay: SPR competition on immobilised EphB2-Fc; competitor ephrinB2-Fc (246 nM) preincubated with 0-1020 nM GST-Azu 88-113
EphB2-Fc [3] = assay: SPR, EphB2-Fc immobilised on CM5, 100 nM analyte

Sequence of GST-Azu 88-113 (chain): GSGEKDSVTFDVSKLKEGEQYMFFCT
Sequence of EphB2-Fc (P54763 19-543): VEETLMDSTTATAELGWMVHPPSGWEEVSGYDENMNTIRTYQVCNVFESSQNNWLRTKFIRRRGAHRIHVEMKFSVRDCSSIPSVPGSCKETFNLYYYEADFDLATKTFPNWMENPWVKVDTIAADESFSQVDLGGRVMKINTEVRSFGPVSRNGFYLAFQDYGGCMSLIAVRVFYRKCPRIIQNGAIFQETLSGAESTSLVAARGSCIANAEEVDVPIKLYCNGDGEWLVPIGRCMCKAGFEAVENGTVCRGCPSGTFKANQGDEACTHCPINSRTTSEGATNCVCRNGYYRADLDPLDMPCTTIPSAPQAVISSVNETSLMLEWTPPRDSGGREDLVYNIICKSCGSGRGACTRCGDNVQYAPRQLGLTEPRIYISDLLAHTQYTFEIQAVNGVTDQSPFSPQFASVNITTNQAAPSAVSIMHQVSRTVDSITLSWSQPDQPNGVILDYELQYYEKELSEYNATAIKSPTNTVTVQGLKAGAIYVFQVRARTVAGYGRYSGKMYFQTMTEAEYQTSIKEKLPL
Sequence of GST-Azu 36-89 (B3EWN9 36-89): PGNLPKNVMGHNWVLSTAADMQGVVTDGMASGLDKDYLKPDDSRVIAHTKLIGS

Substance	level at which the inhibition levels off (EphB2-Fc [1])	reduction of total protein binding to the surface (EphB2-Fc [2])	Req in RU (EphB2-Fc [3])
GST-Azu 88-113	40 to 50%	< 60%	–
GST-Azu 36-89 (from UniProt B3EWN9 36-89)	–	–	57 RU
